± gives the standard deviation of the averaged measurements.

Series [1] relates to Saccharomyces cerevisiae. The series is described as follows: protein stability index of tFT-peptide fusion (C-terminal peptide) (PSI (0-1 scale)); higher = more stable (slower turnover). On the procedure:
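MPS profiling in S. cerevisiae of the tFT-X12 degron library: putative degron peptides plus stable controls, 12 aa, fused to the C-terminus of a sfGFP-mCherry timer. Cells are FACS-sorted into 8 mCherry/sfGFP bins and deep-sequenced. PSI runs from 0 (unstable) to 1 (stable). Backgrounds are wild type, das1Δ and doa10Δ at 30 °C, and wild type, das1Δ, cdc34-1 and cdc53-1 at 37 °C; 2-3 technical replicates each.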

For series [2], the system named is Saccharomyces cerevisiae. The series is described as above. As to conditions: genetic background: wild type; temperature: 30 C.
Where [3] appears, read: genetic background: cdc34-1, temperature: 37 C.
Setting [4] is: genetic background: cdc53-1, temperature: 37 C.
The mark [5] stands for this setting: genetic background: das1 deletion, temperature: 30 C.
The mark [6] stands for this setting: genetic background: das1 deletion, temperature: 37 C.
The mark [7] stands for this setting: genetic background: doa10 deletion, temperature: 30 C.
[8] abbreviates: genetic background: wild type, temperature: 30 C.
The mark [9] stands for this setting: genetic background: wild type, temperature: 37 C.
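Note: PSI is a weighted mean of sequencing reads over stability bins, variants kept only with over 10 reads, mCherry proximal and sfGFP distal, peptide attached via GGGS linker.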

Take VCVARICIWDFL: the protein stability index is 0.505 ± 0.043 in the series on Saccharomyces cerevisiae [1] (setting [3]); 0.589 ± 0.027 in the series on Saccharomyces cerevisiae [1] (setting [4]); 0.446 ± 0.035 with Saccharomyces cerevisiae [1] (setting [5]); 0.594 ± 0.014 in the series on Saccharomyces cerevisiae [1] (setting [6]); 0.413 ± 0.0074 with Saccharomyces cerevisiae [1] (setting [7]); 0.438 ± 0.013 in the series with Saccharomyces cerevisiae [1] (setting [8]). For the same sequence, the protein stability index with Saccharomyces cerevisiae [1] (setting [9]) amounted to 0.596 ± 0.0092; in the series on Saccharomyces cerevisiae [2] it was 0.51 ± 0.033.
VCWVYESWKCLA: the protein stability index stood at 0.438 ± 0.038 with Saccharomyces cerevisiae [1] (setting [3]); 0.571 ± 0.043 with Saccharomyces cerevisiae [1] (setting [4]); 0.536 ± 0.027 with Saccharomyces cerevisiae [1] (setting [5]); 0.672 ± 0.0075 with Saccharomyces cerevisiae [1] (setting [6]); 0.0888 ± 0.014 in the series with Saccharomyces cerevisiae [1] (setting [7]); 0.103 ± 0.0097 with Saccharomyces cerevisiae [1] (setting [8]). For the same sequence, the protein stability index in the series with Saccharomyces cerevisiae [1] (setting [9]) was 0.107 ± 0.013; in the series with Saccharomyces cerevisiae [2], 0.168 ± 0.026.
Regarding VCYLMRSLTFAY, the protein stability index was 0.4968 ± 0.0039 in the series with Saccharomyces cerevisiae [1] (setting [3]); 0.546 ± 0.006 in the series with Saccharomyces cerevisiae [1] (setting [4]); 0.345 ± 0.029 with Saccharomyces cerevisiae [1] (setting [5]); 0.494 ± 0.0096 in the series on Saccharomyces cerevisiae [1] (setting [6]); 0.319 ± 0.021 in the series on Saccharomyces cerevisiae [1] (setting [7]); 0.337 ± 0.024 with Saccharomyces cerevisiae [1] (setting [8]). For the same sequence, the protein stability index in the series with Saccharomyces cerevisiae [1] (setting [9]) was 0.4733 ± 0.0016; with Saccharomyces cerevisiae [2] it was 0.45 ± 0.0099.
VECVCVVVVRRM: the protein stability index in the series on Saccharomyces cerevisiae [1] (setting [3]) came out at 0.391 ± 0.0055; in the series on Saccharomyces cerevisiae [1] (setting [4]), 0.497 ± 0.03; in the series with Saccharomyces cerevisiae [1] (setting [5]), 0.313 ± 0.023; with Saccharomyces cerevisiae [1] (setting [6]), 0.493 ± 0.01; with Saccharomyces cerevisiae [1] (setting [7]) it was 0.266 ± 0.0088; in the series on Saccharomyces cerevisiae [1] (setting [8]), 0.31 ± 0.021. Moreover, the protein stability index worked out at 0.466 ± 0.021 in the series with Saccharomyces cerevisiae [1] (setting [9]) and 0.351 ± 0.017 with Saccharomyces cerevisiae [2].
Turning to VFLCVRLGFIFL, the protein stability index worked out at 0.419 ± 0.0062 in the series on Saccharomyces cerevisiae [1] (setting [3]); 0.486 ± 0.0065 with Saccharomyces cerevisiae [1] (setting [4]); 0.359 ± 0.029 in the series on Saccharomyces cerevisiae [1] (setting [5]); 0.529 ± 0.012 with Saccharomyces cerevisiae [1] (setting [6]); 0.404 ± 0.02 in the series with Saccharomyces cerevisiae [1] (setting [7]); 0.352 ± 0.023 with Saccharomyces cerevisiae [1] (setting [8]). Also, the protein stability index with Saccharomyces cerevisiae [1] (setting [9]) amounted to 0.471 ± 0.023; in the series with Saccharomyces cerevisiae [2], 0.446 ± 0.026.
Turning to VFLLCLGFLVFS, the protein stability index in the series with Saccharomyces cerevisiae [1] (setting [3]) came out at 0.263 ± 0.011; in the series with Saccharomyces cerevisiae [1] (setting [4]) it was 0.341 ± 0.046; with Saccharomyces cerevisiae [1] (setting [5]), 0.258 ± 0.025; in the series with Saccharomyces cerevisiae [1] (setting [6]) it was 0.4083 ± 0.0018; in the series with Saccharomyces cerevisiae [1] (setting [7]), 0.241 ± 0.024; in the series on Saccharomyces cerevisiae [1] (setting [8]), 0.275 ± 0.02. For the same sequence, the protein stability index with Saccharomyces cerevisiae [1] (setting [9]) was 0.3886 ± 0.0038; in the series with Saccharomyces cerevisiae [2], 0.336 ± 0.038.
VFLRRFGVPWVF: the protein stability index in the series with Saccharomyces cerevisiae [1] (setting [3]) worked out at 0.594 ± 0.016; in the series with Saccharomyces cerevisiae [1] (setting [4]) it was 0.664 ± 0.019; in the series on Saccharomyces cerevisiae [1] (setting [5]), 0.493 ± 0.029; with Saccharomyces cerevisiae [1] (setting [6]) it was 0.661 ± 0.016; with Saccharomyces cerevisiae [1] (setting [7]), 0.198 ± 0.0071; in the series on Saccharomyces cerevisiae [1] (setting [8]) it was 0.227 ± 0.02. In addition, the protein stability index in the series with Saccharomyces cerevisiae [1] (setting [9]) came out at 0.429 ± 0.0074; in the series on Saccharomyces cerevisiae [2] it was 0.365 ± 0.017.
VFLSCFFVSWVV: the protein stability index in the series with Saccharomyces cerevisiae [1] (setting [3]) turned out to be 0.328 ± 0.019; with Saccharomyces cerevisiae [1] (setting [4]) it was 0.403 ± 0.047; in the series on Saccharomyces cerevisiae [1] (setting [5]), 0.226 ± 0.027; in the series with Saccharomyces cerevisiae [1] (setting [6]), 0.40329 ± 5.2e-05; in the series with Saccharomyces cerevisiae [1] (setting [7]) it was 0.202 ± 0.011; with Saccharomyces cerevisiae [1] (setting [8]), 0.204 ± 0.015. The protein stability index in the series on Saccharomyces cerevisiae [1] (setting [9]) came to 0.369 ± 0.03; with Saccharomyces cerevisiae [2], 0.3269 ± 0.0017.
For VFLYVYAVWFLV, the protein stability index was determined as 0.156 ± 0.027 in the series with Saccharomyces cerevisiae [1] (setting [3]); 0.228 ± 0.0084 in the series with Saccharomyces cerevisiae [1] (setting [4]); 0.198 ± 0.042 in the series on Saccharomyces cerevisiae [1] (setting [5]); 0.321 ± 0.0075 in the series on Saccharomyces cerevisiae [1] (setting [6]); 0.1102 ± 0.00096 in the series on Saccharomyces cerevisiae [1] (setting [7]); 0.119 ± 0.053 in the series with Saccharomyces cerevisiae [1] (setting [8]). Moreover, the protein stability index with Saccharomyces cerevisiae [1] (setting [9]) was determined as 0.118 ± 0.023; with Saccharomyces cerevisiae [2], 0.164 ± 0.025.
Take VFSFLYHVVPVL: the protein stability index in the series with Saccharomyces cerevisiae [1] (setting [3]) is 0.4374 ± 0.0012; in the series with Saccharomyces cerevisiae [1] (setting [4]), 0.49 ± 0.013; in the series with Saccharomyces cerevisiae [1] (setting [5]) it was 0.36 ± 0.028; in the series with Saccharomyces cerevisiae [1] (setting [6]), 0.505 ± 0.01; with Saccharomyces cerevisiae [1] (setting [7]), 0.324 ± 0.018; in the series with Saccharomyces cerevisiae [1] (setting [8]) it was 0.348 ± 0.024. Moreover, the protein stability index with Saccharomyces cerevisiae [1] (setting [9]) was 0.4554 ± 0.0018; with Saccharomyces cerevisiae [2] it was 0.441 ± 0.01.
Consider VFVMRDGFLRKV, for which the protein stability index was found to be 0.63323 ± 0.00049 in the series on Saccharomyces cerevisiae [1] (setting [3]); 0.7055 ± 0.004 in the series on Saccharomyces cerevisiae [1] (setting [4]); 0.636 ± 0.022 in the series on Saccharomyces cerevisiae [1] (setting [5]); 0.748 ± 0.025 in the series with Saccharomyces cerevisiae [1] (setting [6]); 0.301 ± 0.013 in the series with Saccharomyces cerevisiae [1] (setting [7]); 0.341 ± 0.015 with Saccharomyces cerevisiae [1] (setting [8]). Besides, the protein stability index in the series with Saccharomyces cerevisiae [1] (setting [9]) turned out to be 0.4507 ± 0.0016; with Saccharomyces cerevisiae [2], 0.374 ± 0.044.
Regarding VFWISRLYLASY, the protein stability index in the series with Saccharomyces cerevisiae [1] (setting [3]) stood at 0.474 ± 0.027; in the series on Saccharomyces cerevisiae [1] (setting [4]), 0.524 ± 0.023; in the series on Saccharomyces cerevisiae [1] (setting [5]) it was 0.442 ± 0.037; in the series with Saccharomyces cerevisiae [1] (setting [6]) it was 0.588 ± 0.012; with Saccharomyces cerevisiae [1] (setting [7]), 0.42 ± 0.017; with Saccharomyces cerevisiae [1] (setting [8]), 0.362 ± 0.023. Also, the protein stability index in the series with Saccharomyces cerevisiae [1] (setting [9]) turned out to be 0.52 ± 0.02; with Saccharomyces cerevisiae [2], 0.456 ± 0.02.
On to VGDFFVLVGFVA, for which the protein stability index with Saccharomyces cerevisiae [1] (setting [3]) is 0.493 ± 0.0097; in the series on Saccharomyces cerevisiae [1] (setting [4]) it was 0.538 ± 0.011; in the series with Saccharomyces cerevisiae [1] (setting [5]), 0.386 ± 0.028; in the series with Saccharomyces cerevisiae [1] (setting [6]) it was 0.547 ± 0.0057; in the series on Saccharomyces cerevisiae [1] (setting [7]), 0.336 ± 0.0095; in the series on Saccharomyces cerevisiae [1] (setting [8]) it was 0.382 ± 0.022. The values for the protein stability index with Saccharomyces cerevisiae [1] (setting [9]) and with Saccharomyces cerevisiae [2] were 0.5219 ± 0.0043 and 0.492 ± 0.053, respectively.
Regarding VGDIRSFALWYA, the protein stability index worked out at 0.699 ± 0.039 in the series on Saccharomyces cerevisiae [1] (setting [3]); 0.765 ± 0.014 in the series on Saccharomyces cerevisiae [1] (setting [4]); 0.661 ± 0.015 in the series on Saccharomyces cerevisiae [1] (setting [5]); 0.74 ± 0.0047 in the series with Saccharomyces cerevisiae [1] (setting [6]); 0.656 ± 0.038 with Saccharomyces cerevisiae [1] (setting [7]); 0.646 ± 0.011 with Saccharomyces cerevisiae [1] (setting [8]). The figures for the protein stability index in the series with Saccharomyces cerevisiae [1] (setting [9]) and in the series on Saccharomyces cerevisiae [2] were 0.707 ± 0.011 and 0.745 ± 0.041, respectively.
VGGGGRFWVCVG: the protein stability index was determined as 0.657 ± 0.03 with Saccharomyces cerevisiae [1] (setting [3]); 0.73937 ± 0.00061 in the series on Saccharomyces cerevisiae [1] (setting [4]); 0.629 ± 0.0064 in the series with Saccharomyces cerevisiae [1] (setting [5]); 0.737 ± 0.011 in the series with Saccharomyces cerevisiae [1] (setting [6]); 0.2122 ± 0.0019 in the series on Saccharomyces cerevisiae [1] (setting [7]); 0.237 ± 0.025 in the series with Saccharomyces cerevisiae [1] (setting [8]). Moreover, the protein stability index in the series on Saccharomyces cerevisiae [1] (setting [9]) turned out to be 0.552 ± 0.031; in the series on Saccharomyces cerevisiae [2] it was 0.406 ± 0.04.

Values taken from the supplement of paper PMC10724198.
